Here are results for three molecules from paper PMC3753628, “Recognition and processing of double-stranded DNA by ExoX, a distributive 3′–5′ exonuclease”.

The target of series [1] is T1, ExoX (NT167) (Escherichia coli K12, UniProt P0AEK0 1-167).
T1 sequence: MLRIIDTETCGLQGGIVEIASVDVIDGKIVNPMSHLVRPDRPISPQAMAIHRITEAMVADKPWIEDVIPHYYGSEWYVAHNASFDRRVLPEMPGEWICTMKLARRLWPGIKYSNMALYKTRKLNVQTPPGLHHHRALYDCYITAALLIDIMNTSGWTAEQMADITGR
Nature of the series: X-ray crystallography; two undefined metal ions (MeA, MeB), probably inactive (Ni2+ or Na+); SeMet ExoX; 2:1 protein:DNA; Crystals by hanging drop, 16 C: complex I 0.1 M Tris-HCl pH 8.0, 0.2 M NaCl, 20% PEG 3350; complexes II and III 0.1 M MES pH 6.3, 17% PEG 6000; protein:DNA 1:0.6, 30 min at 4 C, gel filtration. Particulars: protein: recombinant; (pET24a, Ni-NTA; chain copies: 2; text says 17 bp). Background: In gel filtration, larger molecules generally elute earlier.

The target of series [2] is T1, ExoX (NT167). Kind of series: X-ray crystallography; 2 ExoX monomers per DNA; metal at MeA site; Crystals by hanging drop, 16 C: complex I 0.1 M Tris-HCl pH 8.0, 0.2 M NaCl, 20% PEG 3350; complexes II and III 0.1 M MES pH 6.3, 17% PEG 6000; protein:DNA 1:0.6, 30 min at 4 C, gel filtration. Particulars: protein: recombinant; (pET24a, Ni-NTA); chain copies: 2; blunt.
In series [3] the target is T1, ExoX (NT167). Kind of series: X-ray crystallography; Crystals by hanging drop, 16 C: complex I 0.1 M Tris-HCl pH 8.0, 0.2 M NaCl, 20% PEG 3350; complexes II and III 0.1 M MES pH 6.3, 17% PEG 6000; protein:DNA 1:0.6, 30 min at 4 C, gel filtration. Particulars: protein: recombinant; (pET24a, Ni-NTA); chain copies: 2; self-annealed, 2 copies of S2; 5' overhang 5 nt, mispaired 3' terminal nucleotides.

B1: 3' overhanging dsDNA (complex I) (dsDNA)
DNA 1: CGGATCCACAATGACCT
DNA 2: GTCATTGTGGATCCGAG
For the molecule B1, in the series with ExoX (NT167) [1], the binding result was “binds”.

B2: 12 bp blunt-ended dsDNA (complex II) (dsDNA)
DNA 1: CTCGAATCTACA
DNA 2: TGTAGATTCGAG
For the molecule B2, the binding result with ExoX (NT167) [2] is given as “binds”.

B3: 3' recessed mismatch-containing dsDNA (complex III) (dsDNA)
DNA 1: GTCATTGTGGATCCGAG
DNA 2: GTCATTGTGGATCCGAG
As for B3, in the series with ExoX (NT167) [3], the binding result was “binds”.
